Test results taken from the RNAGym collection of RNA variant scans (doi:10.1093/molbev/msab373).

B1: Azoarcus group I ribozyme (parent)
chain: GUGCCUUGCGCCGGGAAACCACGCAAGGGAUGGUGUCAAAUUCGGCGAAACCUAAGCGCCCGCCCGGGCGUAUGGCAACGCCGAGCCAAGCUUCGGCGCCUGCGCCGAUGAAGGUGUAGAGACUAGACGGCACCCACCUAAGGCAAACGCUAUGGUGAAGGCAUAGUCCAGGGAGUGGCGAAAGUCACACAAACCGG

Variants of: B1
Assay: reverse-splicing fitness (ratio to wild type); higher = more active; in vitro selection; Mg2+ level not given
In short: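 An in vitro group I ribozyme library with randomized positions was T7-transcribed and gel-purified. In triplicate, 10 pmol RNA in EPPS pH 7.5 was reacted with 50 pmoles of a 30-nt RNA substrate for 1 h at 37 °C across several added MgCl2 levels (1–48 mM), then stopped with EDTA. Products were reverse transcribed from a substrate-complementary primer, PCR-amplified and sequenced (HiSeq 4000). Fitness is a variant's read proportion after selection over that before, normalised to wild type.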

Going from C82U A111G A120G A145C C150A C169A U176A to C82U A111G A120G A145C C150A C169A U176C, the reverse-splicing fitness falls from 0.0114 to 0.00481.

Going from C82U A111G A120G A145C C150A C169A U176G to C82U A111G A120G A145G C150G U176G, the reverse-splicing fitness rises from 0.00425 to 0.00546.

First: C82U A111G A120G A145G C150G U176C
Second: C82U A111G A120G A145G C150G U176A
The reverse-splicing fitness of the first is higher: 0.00856 for the first, 0.00637 for the second.

Compared with C82U A111G A120G A145G C169G U176A, C82U A111G A120G A145G C169G U176C is higher in reverse-splicing fitness: 0.0211 for the first, 0.0289 for the second.

Compared with C82U A111G A120G A145G C169G U176G, C82U A111G A120G C150U C169G U176G is higher in reverse-splicing fitness: 0.00424 for the first, 0.00447 for the second.

Going from C82U A111G A120G C150U C169G U176A to C82U A111G A120G C150U C169G U176C, the reverse-splicing fitness rises from 0.0144 to 0.0174.

Going from C82U A111G A120G A145G C169U U176G to C82U A111G A120G A145G C169U U176C, the reverse-splicing fitness rises from 0.00414 to 0.0164.

Going from C82U A111G A120G A145G C169U U176A to C82U A111G A120G A145C C150U C169A U176C, the reverse-splicing fitness falls from 0.0209 to 0.00548.

Compared with C82U A111G A120G A145C C150U C169A U176A, C82U A111G A120G A145C C150U C169A U176G is lower in reverse-splicing fitness: 0.0104 for the first, 0.00395 for the second.

Compared with C82U A111G A120G A145U C150G U176A, C82U A111G A120G A145U C150G U176G is lower in reverse-splicing fitness: 0.00535 for the first, 0.00321 for the second.

First: C82U A111G A120G A145U C150G U176C
Second: C82U A111G A120G A145C C169U
The reverse-splicing fitness of the first is lower: 0.00779 for the first, 0.00954 for the second.

Compared with C82U A111G A120G A145C C169G, C82U A111G A120G A145C C169A is lower in reverse-splicing fitness: 0.0123 for the first, 0.00792 for the second.

Compared with C82U A111G A120U A145C C150A C169G U176G, C82U A111G A120U A145C C150A C169G U176C is higher in reverse-splicing fitness: 0.0017 for the first, 0.00206 for the second.

First: C82U A111G A120U A145C C150A C169G U176A
Second: C82U A111G A120U A145C C150G C169A U176G
The reverse-splicing fitness of the first is lower: 0.00205 for the first, 0.00209 for the second.

Going from C82U A111G A120U A145C C150G C169A U176C to C82U A111G A120U A145C C150G C169A U176A, the reverse-splicing fitness falls from 0.00258 to 0.00187.

Compared with C82U A111G A120G A145C C150G C169A U176A, C82U A111G A120G A145C C150G C169A U176C is lower in reverse-splicing fitness: 0.00781 for the first, 0.00579 for the second.

First: C82U A111G A120G A145C C150G C169A U176G
Second: C82U A111G A120U A145C C150A C169A U176G
The reverse-splicing fitness of the first is higher: 0.00439 for the first, 0.00186 for the second.

Going from C82U A111G A120U A145C C150A C169A U176A to C82U A111G A120U A145C C150A C169A U176C, the reverse-splicing fitness falls from 0.00213 to 0.00185.

Going from C82U A111G A120G A145G C150A C169U U176G to C82U A111G A120G A145G C150A C169U U176C, the reverse-splicing fitness rises from 0.00573 to 0.0156.

Going from C82U A111G A120G A145G C150A C169U U176A to C82U A111G A120G C169U, the reverse-splicing fitness falls from 0.0215 to 0.0109.

Compared with C82U A111G A120G C169G, C82U A111G A120G C169A is lower in reverse-splicing fitness: 0.0125 for the first, 0.0106 for the second.

Going from C82U A111G A120G C150U C169U to C82U A111G A120G C150U C169G, the reverse-splicing fitness rises from 0.00996 to 0.0104.

Compared with C82U A111G A120G C150U C169A, C82U A111G A120G C150U C169U U176A is higher in reverse-splicing fitness: 0.0105 for the first, 0.0221 for the second.

Compared with C82U A111G A120G C150U C169U U176C, C82U A111G A120G C150U C169U U176G is lower in reverse-splicing fitness: 0.015 for the first, 0.00611 for the second.

Going from C82U A111G A120G A145C C150U C169U U176C to C82U A111G A120G A145C C150U C169U U176A, the reverse-splicing fitness rises from 0.0091 to 0.0196.

Going from C82U A111G A120G A145C C150U C169U U176G to C82U A111G A120U A145C C150A C169G, the reverse-splicing fitness falls from 0.00413 to 0.00197.

First: C82U A111G A120U A145C C150A C169A
Second: C82U A111G A120U A145C C150A C169U
The reverse-splicing fitness of the first is lower: 0.00199 for the first, 0.00217 for the second.

First: C82U A111G A120G A145U U176A
Second: C82U A111G A120G A145U U176C
The reverse-splicing fitness of the first is lower: 0.0116 for the first, 0.0141 for the second.

Compared with C82U A111G A120G A145U U176G, C82U A111G A120G A145G C150U C169U U176G is higher in reverse-splicing fitness: 0.00443 for the first, 0.00525 for the second.

First: C82U A111G A120G A145G C150U C169U U176A
Second: C82U A111G A120G A145G C150U C169U U176C
The reverse-splicing fitness of the first is higher: 0.0187 for the first, 0.0162 for the second.

Going from C82U A111G A120G A145U C150G C169A to C82U A111G A120G A145U C150G C169U, the reverse-splicing fitness falls from 0.00861 to 0.00832.

Compared with C82U A111G A120G A145U C150G C169G, C82U A111G A120G A145G C150G C169A is higher in reverse-splicing fitness: 0.00704 for the first, 0.00895 for the second.

Compared with C82U A111G A120G A145G C150G C169U, C82U A111G A120G A145G C150G C169G is lower in reverse-splicing fitness: 0.00855 for the first, 0.00721 for the second.

Compared with C82U A111G A120G A145C C150A C169G U176C, C82U A111G A120G A145C C150A C169G U176A is higher in reverse-splicing fitness: 0.015 for the first, 0.023 for the second.

Compared with C82U A111G A120G A145C C150A C169G U176G, C82U A111G A120G A145G C150U C169G U176A is higher in reverse-splicing fitness: 0.00465 for the first, 0.014 for the second.

Going from C82U A111G A120G A145G C150U C169G U176C to C82U A111G A120G A145G C150U C169G U176G, the reverse-splicing fitness falls from 0.0168 to 0.00444.

Compared with C82U A111G A120U A145C C169G U176A, C82U A111G A120U A145C C169G U176G is lower in reverse-splicing fitness: 0.00218 for the first, 0.00126 for the second.

Going from C82U A111G A120U A145C C169G U176C to C82U A111G A120G A145C C150A C169A, the reverse-splicing fitness rises from 0.0021 to 0.00777.

Going from C82U A111G A120G A145C C150A C169G to C82U A111G A120G A145C C150A C169U, the reverse-splicing fitness falls from 0.00737 to 0.00634.

First: C82U A111G A120G C169A U176G
Second: C82U A111G A120G C169A U176A
The reverse-splicing fitness of the first is lower: 0.00398 for the first, 0.0167 for the second.

Compared with C82U A111G A120G C169A U176C, C82U A111G A120G A145G C150U C169A U176C is lower in reverse-splicing fitness: 0.023 for the first, 0.0148 for the second.

Compared with C82U A111G A120G A145G C150U C169A U176A, C82U A111G A120G A145G C150U C169A U176G is lower in reverse-splicing fitness: 0.0143 for the first, 0.00562 for the second.
